What all share (conditions): both partners purified
Experiment [1] concerns the target T1, fluorescein-labeled Pex5 (Pex5-FAM) (S. cerevisiae, UniProt P35056 1-612, fluorescein-conjugated peptide GGGK-FAM joined by sortase at the LPETGG site at the C-terminus).
T1 construct: Pex5, S. cerevisiae W303 coding region, followed by a sortase site (LPETGG) upstream of the C-terminal 6xHis tag; Likely derived from FLAG-Pex5-His, so an N-terminal FLAG tag may be present; After sortase the C-terminus should read LPET-GGGK(FAM); source: E. coli BL21*, purified, sortase-labelled, Ni-NTA flow-through, Superdex 200 increase; not shown: His6, C-terminal, cleaved
T1 sequence (looked up): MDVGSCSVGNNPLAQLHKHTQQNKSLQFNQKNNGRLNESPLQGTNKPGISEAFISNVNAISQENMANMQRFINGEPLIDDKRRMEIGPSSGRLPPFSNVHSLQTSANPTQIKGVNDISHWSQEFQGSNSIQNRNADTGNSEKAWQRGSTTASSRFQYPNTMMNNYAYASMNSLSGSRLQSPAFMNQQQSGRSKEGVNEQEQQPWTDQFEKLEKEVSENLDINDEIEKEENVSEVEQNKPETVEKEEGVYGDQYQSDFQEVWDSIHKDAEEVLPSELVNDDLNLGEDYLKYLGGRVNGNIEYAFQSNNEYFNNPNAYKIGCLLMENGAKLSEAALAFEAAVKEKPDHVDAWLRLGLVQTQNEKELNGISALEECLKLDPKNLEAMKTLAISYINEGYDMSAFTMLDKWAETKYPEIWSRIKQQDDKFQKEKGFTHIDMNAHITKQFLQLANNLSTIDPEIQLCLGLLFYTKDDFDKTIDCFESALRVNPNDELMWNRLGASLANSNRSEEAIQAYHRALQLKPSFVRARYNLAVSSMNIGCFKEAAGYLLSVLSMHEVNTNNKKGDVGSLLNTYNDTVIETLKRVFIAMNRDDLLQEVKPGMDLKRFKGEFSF
The experiment is described as follows: pull-down; 2 μM MBP-Pex15 1-327 on magnetic amylose resin with 350 nM Pex5-FAM, with or without 1 μM Pex1-WB2/Pex6-WB2 and 100 μM SKL peptide, 1 h, 4 °C, 60 mM HEPES pH 7.6, 150 mM NaCl, 150 mM KCl, 10% glycerol, 0.05% Tween-20, 10 mM MgCl2, 0.5 mM EDTA, 5 mM ATP; eluted with 20 mM maltose; Pex5 seen by its fluorescein.

The target in experiment [2] is T2, Pex1-FLAG/His-Pex6 hexamer, wild type (S. cerevisiae, UniProt P24004 1-1043; P33760 1-1030).
T2 construct: Pex1, S. cerevisiae W303 coding region; Pex6, S. cerevisiae W303 coding region; also called Pex1/Pex6; wild-type Pex1/Pex6; source: E. coli BL21*, co-expressed, purified (Ni-NTA, anti-FLAG, Superose6); not shown: FLAG, C-terminal, kept; His6, N-terminal, kept; copies: 3 + 3
Description: negative-stain EM reconstruction; 20 nM Pex1-FLAG/His-Pex6 mixed with 200 nM Pex15, 5 min on ice, 5 mM ATP; 3D reconstruction at 23.2 Å.
T2 sequence (P24004 whole entry, chain 1 of 2): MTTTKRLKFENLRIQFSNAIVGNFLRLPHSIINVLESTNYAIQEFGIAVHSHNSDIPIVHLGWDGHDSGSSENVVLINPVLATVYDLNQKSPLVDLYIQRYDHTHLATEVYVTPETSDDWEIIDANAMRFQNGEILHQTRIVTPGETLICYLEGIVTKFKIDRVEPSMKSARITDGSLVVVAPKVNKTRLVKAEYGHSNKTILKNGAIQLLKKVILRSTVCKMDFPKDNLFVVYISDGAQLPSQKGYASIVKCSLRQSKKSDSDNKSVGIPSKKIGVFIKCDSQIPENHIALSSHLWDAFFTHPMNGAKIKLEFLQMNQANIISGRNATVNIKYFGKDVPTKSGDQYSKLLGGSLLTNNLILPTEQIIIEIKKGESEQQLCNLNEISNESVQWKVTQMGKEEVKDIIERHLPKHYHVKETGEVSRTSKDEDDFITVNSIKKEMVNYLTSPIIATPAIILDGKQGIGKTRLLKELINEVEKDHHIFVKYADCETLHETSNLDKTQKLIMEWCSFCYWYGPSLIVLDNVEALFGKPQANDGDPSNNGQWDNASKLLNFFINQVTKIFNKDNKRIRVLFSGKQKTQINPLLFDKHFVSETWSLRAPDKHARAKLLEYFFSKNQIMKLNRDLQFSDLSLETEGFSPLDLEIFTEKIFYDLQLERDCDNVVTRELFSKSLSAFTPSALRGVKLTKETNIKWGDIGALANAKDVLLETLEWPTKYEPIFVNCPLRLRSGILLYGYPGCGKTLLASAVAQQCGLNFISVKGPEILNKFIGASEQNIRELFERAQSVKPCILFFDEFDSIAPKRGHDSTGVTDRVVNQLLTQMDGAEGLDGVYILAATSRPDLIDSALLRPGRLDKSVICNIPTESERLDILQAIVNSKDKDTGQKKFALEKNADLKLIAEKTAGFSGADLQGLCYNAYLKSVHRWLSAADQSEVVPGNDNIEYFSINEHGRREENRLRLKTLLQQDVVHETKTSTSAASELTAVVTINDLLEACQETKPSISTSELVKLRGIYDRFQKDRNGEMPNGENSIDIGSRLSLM
T2 sequence (P33760 whole entry, chain 2 of 2): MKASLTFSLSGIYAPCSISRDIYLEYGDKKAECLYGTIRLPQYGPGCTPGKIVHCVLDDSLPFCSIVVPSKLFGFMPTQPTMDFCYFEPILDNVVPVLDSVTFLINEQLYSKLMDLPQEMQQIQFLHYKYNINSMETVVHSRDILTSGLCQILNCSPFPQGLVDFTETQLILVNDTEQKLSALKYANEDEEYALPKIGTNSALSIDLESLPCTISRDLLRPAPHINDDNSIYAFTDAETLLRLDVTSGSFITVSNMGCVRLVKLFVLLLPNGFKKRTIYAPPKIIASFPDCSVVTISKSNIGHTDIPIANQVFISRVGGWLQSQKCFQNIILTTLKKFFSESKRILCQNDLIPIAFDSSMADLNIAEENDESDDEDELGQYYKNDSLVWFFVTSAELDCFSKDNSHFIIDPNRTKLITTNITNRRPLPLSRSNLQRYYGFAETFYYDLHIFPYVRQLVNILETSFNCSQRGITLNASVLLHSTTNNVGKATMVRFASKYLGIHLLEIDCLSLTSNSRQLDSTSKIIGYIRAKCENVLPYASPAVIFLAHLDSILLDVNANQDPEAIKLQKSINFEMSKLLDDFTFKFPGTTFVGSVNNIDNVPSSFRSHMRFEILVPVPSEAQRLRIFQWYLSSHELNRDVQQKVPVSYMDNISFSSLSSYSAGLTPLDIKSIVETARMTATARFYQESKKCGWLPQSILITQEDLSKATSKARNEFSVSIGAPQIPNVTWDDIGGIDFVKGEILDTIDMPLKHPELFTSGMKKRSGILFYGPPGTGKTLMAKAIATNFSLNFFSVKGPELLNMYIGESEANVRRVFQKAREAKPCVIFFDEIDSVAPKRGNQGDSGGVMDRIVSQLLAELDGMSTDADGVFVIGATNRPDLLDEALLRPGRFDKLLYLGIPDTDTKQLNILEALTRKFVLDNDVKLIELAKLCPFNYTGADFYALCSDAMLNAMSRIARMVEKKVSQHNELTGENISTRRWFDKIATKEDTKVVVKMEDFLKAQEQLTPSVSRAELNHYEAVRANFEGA

The target of experiment [3] is T3, Pex1-FLAG/His-Pex6 (V245A, T246A) hexamer (S. cerevisiae, UniProt P24004 1-1043; P33760 1-1030, V245A | T246A).
T3 construct: Pex1, S. cerevisiae W303; also called Pex1/Pex6-VT:AA; Pex6 VT:AA; source: E. coli BL21*, co-expressed, purified (Ni-NTA, anti-FLAG, Superose6); copies: 3 + 3
The experiment is described as follows: inhibition of ATPase activity (ATP/NADH coupled enzyme assay); apparent KD from the concentration-dependent inhibition of the ATPase activity of 5 nM Pex1/Pex6 by titrated Pex15; 5 mM ATP, 2 uM BSA; n = 3 technical replicates.

Experiment [4] concerns the target T4, Pex1-FLAG/His-Pex6 hexamer, wild type (S. cerevisiae, UniProt P24004 1-1043; P33760 1-1030).
T4 construct: Pex1, S. cerevisiae W303; Pex6, S. cerevisiae W303; Heterohexamer with alternating subunits; also called WT Pex1/Pex6; Pex1/Pex6; source: E. coli BL21*, co-expressed, purified (Ni-NTA, anti-FLAG, Superose6); copies: 3 + 3
Described as above.
T4 sequence (P24004 whole entry, chain 1 of 2): as the sequence (P24004 whole entry, chain 1 of 2) above
T4 sequence (P33760 whole entry, chain 2 of 2): as the sequence (P33760 whole entry, chain 2 of 2) above

Experiment [5] concerns the target T5, Pex1-WB2/Pex6-WB2 mutant hexamer (Pex1-E798Q-Strep/His-Pex6-E832Q) (S. cerevisiae, UniProt P24004 1-1043; P33760 1-1030, E798Q | E832Q).
T5 construct: Pex1, S. cerevisiae W303, Walker B D2 mutant; Pex6, S. cerevisiae W303, Walker B D2 mutant; also called Pex1-WB/Pex6-WB; ATPase-deficient Pex1/Pex6; source: E. coli BL21*, co-expressed, purified (Ni-NTA, Streptactin); copies: 3 + 3
Description: HDX-MS; 3 uM Pex15 1-309 and 100 nM Pex1-WB2/Pex6-WB2 hexamer in D2O buffer (60 mM HEPES pD 7.6, 50 mM NaCl, 50 mM KCl, 10% glycerol, 10 mM MgCl2, 0.5 mM EDTA, 5 mM ATP); 15 s deuteration, with and without saturating Pex15.

The target of experiment [6] is T4, Pex1-FLAG/His-Pex6 hexamer, wild type. Description: inhibition of ATPase activity (ATP/NADH coupled enzyme assay); apparent KD from the concentration-dependent inhibition of the ATPase activity of 5 nM Pex1/Pex6 by titrated Pex15; 5 mM ATP, 2 uM BSA; n = 3 technical replicates. The source holds these as a separate data set.

T5 sequence (P24004 whole entry E798Q, chain 1 of 2): as the sequence (P24004 whole entry, chain 1 of 2) above, with E798Q counted along it
T5 sequence (P33760 whole entry E832Q, chain 2 of 2): as the sequence (P33760 whole entry, chain 2 of 2) above, with E832Q counted along it
T3 sequence (P24004 whole entry, chain 1 of 2): as the sequence (P24004 whole entry, chain 1 of 2) above
T3 sequence (P33760 whole entry V245A/T246A, chain 2 of 2): as the sequence (P33760 whole entry, chain 2 of 2) above, with V245A, T246A counted along it

B1: MBP-Pex15 1-327-FLAG-His (domain or fragment, S. cerevisiae, UniProt Q08215 1-327, looked up)
chain: MAASEIMNNLPMHSLDSSLRDLLNDDLFIESDESTKSVNDQRSEVFQECVNLFIKRDIKDCLEKMSEVGFIDITVFKSNPMILDLFVSACDIMPSFTKLGLTLQSEILNIFTLDTPQCIETRKIILGDLSKLLVINKFFRCCIKVIQFNLTDHTEQEEKTLELESIMSDFIFVYITKMRTTIDVVGLQELIEIFIFQVKVKLHHKKPSPNMYWALCKTLPKLSPTLKGLYLSKDVSIEDAILNSIDNKIQKDKAKSKGKQRGVKQKIHHFHEPMLHNSSEEQVKVEDAFNQRTSTDSRLQSTGTAPRKKNNDITVLAGSFWAVLKHH
notes: Pex15, S. cerevisiae W303, cytosolic domain residues 1-327; not shown: MBP, N-terminal, kept; FLAG, C-terminal, kept; His, C-terminal, kept
B1: in experiment [1], the binding result is given as “binds”.

B2: Pex15 cytosolic domain (aa 1-327), as used for negative-stain EM (domain or fragment, S. cerevisiae, UniProt Q08215 1-327, looked up)
chain: MAASEIMNNLPMHSLDSSLRDLLNDDLFIESDESTKSVNDQRSEVFQECVNLFIKRDIKDCLEKMSEVGFIDITVFKSNPMILDLFVSACDIMPSFTKLGLTLQSEILNIFTLDTPQCIETRKIILGDLSKLLVINKFFRCCIKVIQFNLTDHTEQEEKTLELESIMSDFIFVYITKMRTTIDVVGLQELIEIFIFQVKVKLHHKKPSPNMYWALCKTLPKLSPTLKGLYLSKDVSIEDAILNSIDNKIQKDKAKSKGKQRGVKQKIHHFHEPMLHNSSEEQVKVEDAFNQRTSTDSRLQSTGTAPRKKNNDITVLAGSFWAVLKHH
notes: Pex15, S. cerevisiae W303, cytosolic domain residues 1-327; also called Pex15 cytosolic portion; source: E. coli BL21*, purified (Ni-NTA, Superdex 200); not shown: His, C-terminal, cleaved
B2: the “stoichiometry N” value in experiment [2] is 3 Pex15 per Pex1/Pex6 hexamer.

B3: Pex15 1-309 (cytosolic domain) (domain or fragment, S. cerevisiae, UniProt Q08215 1-309, looked up)
chain: MAASEIMNNLPMHSLDSSLRDLLNDDLFIESDESTKSVNDQRSEVFQECVNLFIKRDIKDCLEKMSEVGFIDITVFKSNPMILDLFVSACDIMPSFTKLGLTLQSEILNIFTLDTPQCIETRKIILGDLSKLLVINKFFRCCIKVIQFNLTDHTEQEEKTLELESIMSDFIFVYITKMRTTIDVVGLQELIEIFIFQVKVKLHHKKPSPNMYWALCKTLPKLSPTLKGLYLSKDVSIEDAILNSIDNKIQKDKAKSKGKQRGVKQKIHHFHEPMLHNSSEEQVKVEDAFNQRTSTDSRLQSTGTAPRKK
notes: likely here too; source: E. coli BL21*, purified (Ni-NTA, tag cleaved with PreScission protease, Superdex 200); not shown: His, C-terminal, cleaved
Consider B3, for which the Kd in experiment [3] was determined as 1980 ± 580 nM; in experiment [4], 580 ± 180 nM; in experiment [6], 580 nM. Further, the binding result in experiment [5] is “binds”.

These data come from article PMC5762779, “The peroxisomal AAA-ATPase Pex1/Pex6 unfolds substrates by processive threading” (Nature Communications, 2018).
